The text below walks through data of US20050129695A1 (published 2005).

One assay addresses T1, Aβ38 peptide (1-38) (UniProt P05067 672-709).
T1 construct: domain: Aβ38 (1-38 peptide); Injected over immobilized antibodies in BIAcore; also called 1-38 peptide
Nature of the assay: BIAcore 3000, antibody amine-coupled to CM5, peptide injected; qualitative. The procedure:
(§1) BIAcore 3000, CM5 sensor surface, amine coupling kit, HEPES buffered saline (HBS, 10 mM HEPES 150 mM NaCl, pH7.4 with 3 mM EDTA and 0.005% Tween-20) and 10 mM sodium acetate pH 4.5 were purchased from Biacore, Inc. (Piscataway, N.J.). Anti-Aβmonoclonal antibodies (100 ug/mL) were dialyzed against HBS diluted 1:10 with water. Then, the dialyzed mAb solution was diluted 1:10 into 10 mM sodium acetate pH 4.5. The CM5 sensor surface was equilibrated in the BIAcore 3000 with HBS. Each antibody was immobilized onto a flow cell using the immobilization wizard provided in the operating software and the protocols supplied with the amine coupling kit. The wizard was set to immobilize 2500 RU of antibody. Typically 2000-3000 RU were actually immobilized.
(§2) For each mAb response, data as a function of time were collected (FIG. 46). From the sensorgram, report points are taken 10 seconds prior to the injection of the peptide, 10 seconds prior to the completion of the association phase, and 60 seconds into the dissociation phase. […] These calculations are made possible by assuming that 1 RU=1 pg of peptide (or protein)/mm².
(§3) Due to the potentially multiple aggregation states of the 1-38 and 1-42 peptides, a quantitative analysis of the binding constants is not possible. However, a qualitative analysis is possible. FIG. 47 ranks the mAbs as a function of binding ratio and fraction remaining on the surface after 60 seconds reflecting the stability of the complex. From this analysis C705 and C707 appear to be capable of binding to “monomeric” peptide, where as C701 and C706 requires the peptide to be aggregated to some extent before they can bind.

The next assay concerns the target T2, human Aβ1-42 (human, UniProt P05067 672-713).
T2 construct: domain: Aβ1-42; same polypeptide, aggregation state differs; also called Aβ42; 1-42 peptide
Described as above. The procedure: as §1, §2, §3

T1 sequence (P05067 672-709 limits assumed): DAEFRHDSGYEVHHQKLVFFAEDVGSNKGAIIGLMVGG
T2 sequence (P05067 672-713 limits assumed): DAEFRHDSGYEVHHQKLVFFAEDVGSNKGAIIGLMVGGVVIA

B1: anti-Aβ monoclonal antibody C701 (antibody, V domains shown)
VH: EGQLQQSGAELVRSGASLKLSCTASGFNIKDHYVHWVRQRPEQGLDWIGWIAPKNGYSESAPKFQGKASMTADTSSNTVYLQLSSLTSEDTAVYYCFAGFYDSSLYWGQGTTLTVSS
VL: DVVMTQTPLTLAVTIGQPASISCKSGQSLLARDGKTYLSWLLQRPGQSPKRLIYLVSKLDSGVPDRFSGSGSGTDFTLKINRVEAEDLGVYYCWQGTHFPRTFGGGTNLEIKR
notes: Tested as protein G purified IgG, detected with goat anti-mouse IgG; also called C701 mAb
Take B1: the binding result in the assay with Aβ38 peptide (1-38) and with human Aβ1-42 was “binds” in each case.

B2: anti-Aβ monoclonal antibody C706 (antibody, V domains shown)
VH: QVQLQQSGPELMKPGASVKISCKATGYTFSTSWIEWIKQRPGHGLEWIGEVLPGSGKSNHNANFKGRATFTADTASNTAYMQLSSLTSEDSAVYYCAREGSNNNALAYWGQGTLVTVSA
VL: QIVLTQSPAIMSASPGEKVTMTCSASSSVSYMHWYQQKSGTSPKRWIYDSSRLASGVPSRFSGGGSGTSYSPTISNMEAEDAATYFCQNWRSSPTFGAGTKLELKR
notes: Tested as protein G purified IgG, detected with goat anti-mouse IgG; also called C706 mAb
Regarding B2, the binding result with Aβ38 peptide (1-38) and with human Aβ1-42 was “binds” throughout.

B3: anti-Aβ monoclonal antibody C707 (antibody, V domains shown)
VH: EVQLQQSGPDLVKPGASVKTSCKTSGYSFTEYIMSWVRQSHGKSLEWIGSINPNTGGSRYNQKFKGKATLTVDKSSSTAYMEFRSLTSEDSAVYYCARGDFDYWGQGTTLTVSS
VL: DIVMTQAAFSNPVTLGTSASISCRSSKNLLHSNGITYLYWYLQRPGQSPQLLISRVSNLASGVPNRFSGSESGTDFTLRISRVEAEDVGVYYCAQLLELPFTFGSGTKLEIKR
notes: Tested as protein G purified IgG, detected with goat anti-mouse IgG; also called C707 mAb
In the case of B3, the binding result in the assay with Aβ38 peptide (1-38) and with human Aβ1-42 was “binds” throughout.

B4: anti-Aβ monoclonal antibody C705 (antibody, V domains shown)
VH: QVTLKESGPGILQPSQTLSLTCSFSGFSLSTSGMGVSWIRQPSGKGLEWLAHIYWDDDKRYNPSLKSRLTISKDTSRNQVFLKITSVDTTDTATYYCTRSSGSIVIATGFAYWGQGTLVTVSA
VL: DVMMTQTPLSLPVSLGDQASISCRSSQSLVHSNGNTYLEWYMQKPGQSPMLLIYKVSNRFSGVPDRFSGSGSGTDFTLKISSVEAEDLGVFYCFQGSRVPLTFGAGTKLELKR
notes: Tested as protein G purified IgG, detected with goat anti-mouse IgG; also called C705 mAb
Take B4: the binding result in the assay with Aβ38 peptide (1-38) and in the assay with human Aβ1-42 was “binds” throughout.
